{"source": "IntAct's records for PubMed 18075593", "target": "cry1_mouse Cry1 (UniProt P97784)", "sequence (P97784 whole entry)": "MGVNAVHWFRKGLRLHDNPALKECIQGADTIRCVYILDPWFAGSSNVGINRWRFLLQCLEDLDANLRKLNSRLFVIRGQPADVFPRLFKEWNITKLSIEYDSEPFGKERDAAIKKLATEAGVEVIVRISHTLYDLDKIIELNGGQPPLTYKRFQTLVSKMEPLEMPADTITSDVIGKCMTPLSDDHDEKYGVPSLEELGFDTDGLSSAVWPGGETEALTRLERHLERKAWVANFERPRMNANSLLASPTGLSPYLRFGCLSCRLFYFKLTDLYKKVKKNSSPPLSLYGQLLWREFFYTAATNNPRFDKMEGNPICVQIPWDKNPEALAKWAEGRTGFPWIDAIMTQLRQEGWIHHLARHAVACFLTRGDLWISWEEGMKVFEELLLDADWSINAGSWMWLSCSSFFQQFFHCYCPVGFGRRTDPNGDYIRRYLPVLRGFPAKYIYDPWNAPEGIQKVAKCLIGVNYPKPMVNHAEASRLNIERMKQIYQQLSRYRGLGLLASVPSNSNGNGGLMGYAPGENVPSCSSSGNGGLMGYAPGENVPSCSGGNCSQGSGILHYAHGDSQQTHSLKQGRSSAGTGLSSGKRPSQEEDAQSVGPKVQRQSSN", "data": [{"substance": "Basic helix-loop-helix ARNT-like protein 1 (Mus musculus), Q9WTL8-2 K537R", "values": [{"measurement": "effect of a mutation on the interaction", "value": "decreasing interaction strength"}]}]}
